Measured values taken from US20090075374A1, “METHODS OF GENERATING EPITHELIAL LINEAGE CELLS FROM EMBRYOID BODIES AND PLURIPOTENT CELLS” (priority 2007, published 2009).

How the values were obtained:
Format in all cases: cell-based, human
[1] = system: undifferentiated hESCs; assay: Concentration-dependent effect of RA: toxicity; conditions: higher concentrations (e.g., 10 μM)
Description: In some experiments, K14-positive cells were generated from EBs.
To study the concentration-dependent effect of RA, EBs were differentiated with varying RA concentrations for nine days and subsequently cultured on gelatin in DSFM for nineteen days. […] To study the temporal-dependent effect of RA, RA was added to the cultures at various stages of differentiation (e.g., either during EB induction or during adherent culture in DSFM). […] When exposed to RA, plated cells from control EBs were enriched in neural precursor populations, as confirmed by qPCR analysis.

[2] = system: hESCs; assay: Direct differentiation of hESCs to K14-positive cells; conditions: for K14+ yield: subsequent culture in keratinocyte medium, RA+/− cultures
Description: For immunohistochemistry, cells were fixed in 4% paraformaldehyde for 15 minutes at room temperature before blocking and permeabilizing with 5% milk in PBS with 0.4% Triton X-100.

[3] = system: hESCs; assay: Direct differentiation of hESCs in N2 medium containing RA, BMP-4 or Noggin: epithelial and neuroectodermal transcripts; conditions: six days, BMP-4 inhibition in RA-treated samples
Description: For semi-quantitative and quantitative PCR, RNA was harvested from cells using a RNeasy® Mini kit (Qiagen; Valencia, Calif.). cDNA was then generated using Omniscript® RT (Qiagen), 1 μg RNA and oligo-dT primers. For semi-quantitative analysis, PCR was conducted using Platinum® Taq (Invitrogen) with 1 μl cDNA for 30 or 35 cycles. For quantitative analysis, PCR was conducted using Quantitect® SYBR Green qPCR kit (Qiagen) with 1 μl cDNA on an iCycler (BioRad; Hercules, Calif.). Relative expression levels were calculated using the ΔCT method, normalizing to GAPDH transcription. Primers (Table 1) were designed to span intron or bound exon borders, and PCR products were verified by melt curve analysis and/or 2% agarose gel electrophoresis.
BMP-4 synergized with RA in direct differentiation of hESCs to K14^+ cells. hESCs were directly differentiated in N2 medium containing RA, BMP-4 or Noggin (a BMP inhibitor). After differentiation for six days, RNA was analyzed for expression of epithelial and neuroectodermal transcripts. ΔNp63 was elevated in all RA-treated cell samples, regardless of status of BMP signaling.

CC1=C(/C=C/C(C)=C/C=C/C(C)=C/C(=O)O)C(C)(C)CCC1 [RA, tretinoin (all-trans RA), reference compound]
toxicity to undifferentiated hESCs [1]: appeared toxic
cells expressing K14 ([2]; after five weeks of differentiation, subculture in keratinocyte medium): 87%

B1: BMP-4: bone morphogenetic protein-4 (R&D Systems), growth factor of the TGF-β superfamily (protein, UniProt P12644 293-408, looked up)
Bone morphogenetic protein 4: SPKHHSQRARKKNKNCRRHSLYVDFSDVGWNDWIVAPPGYQAFYCHGDCPFPLADHLNSTNHAIVQTLVNSVNSSIPKACCVPTELSAISMLYLDEYDKVVLKNYQEMVVEGCGCR
K14+ yield [2]: only slightly affected

B2: Noggin: a BMP inhibitor (R&D Systems) (protein, UniProt Q13253 28-232, looked up)
Noggin: QHYLHIRPAPSDNLPLVDLIEHPDPIFDPKEKDLNETLLRSLLGGHYDPGFMATSPPEDRPGGGGGAAGGAEDLAELDQLLRQRPSGAMPSEIKGLEFSEGLAQGKKQRLSKKLRRKLQMWLWSQTFCPVLYAWNDLGSRFWPRYVKVGSCFSKRSCSVPEGMVCKPSKSVHLTVLRWRCQRRGGQRCGWIPIQYPIISECKCSC
K14+ yield [2]: decreased
effect on RA downregulation of neuroepithelial gene expression [3]: mitigated this effect
